Experimental data published in paper PMC8626645 (Molecular Pharmacology, 2021).

Columns and labels:
[1] = target: SNAP-GLP-1R (HEK293-SNAP-GLP-1R cells) (UniProt P43220); experiment: FRET or BRET
[2] = in vivo; cited from earlier work
Text: Pathologic increases in blood glucose, the central metabolic defect in T2D, occur chiefly because of failure of pancreatic β cells to release enough of the glucoregulatory hormone insulin and overweight-related tissue resistance to insulin action.

Sequence of UniProt P43220 (P43220 24-463): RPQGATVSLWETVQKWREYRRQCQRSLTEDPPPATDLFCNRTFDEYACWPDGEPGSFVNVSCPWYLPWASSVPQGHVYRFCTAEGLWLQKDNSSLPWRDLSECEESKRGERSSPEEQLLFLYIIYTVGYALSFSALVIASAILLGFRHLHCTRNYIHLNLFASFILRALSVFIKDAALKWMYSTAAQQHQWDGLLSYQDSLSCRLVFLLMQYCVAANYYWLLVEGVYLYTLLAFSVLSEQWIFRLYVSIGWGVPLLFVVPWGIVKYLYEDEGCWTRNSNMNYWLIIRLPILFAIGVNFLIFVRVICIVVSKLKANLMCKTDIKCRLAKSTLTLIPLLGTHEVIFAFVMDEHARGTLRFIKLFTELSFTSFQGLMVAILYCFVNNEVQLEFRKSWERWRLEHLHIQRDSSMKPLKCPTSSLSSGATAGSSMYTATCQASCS

| Substance | Log Ki (M) [1] [log M] | inactivation in the circulation [2] |
| --- | --- | --- |
| exendin-4 (from UniProt P26349 48-87) (peptide) | -9.2 | – |
| GLP-1(7-36)NH2: the endogenous ligand for GLP-1R | – | enzymatically inactivated in the circulation within minutes |
